1 molecule from patent publication US6548634B1, “Synthetic peptides having FGF receptor affinity” (priority 1998, dated 2003) can be followed below.

One experiment concerns Swiss 3T3 fibroblasts. As to the kind of experiment: BrdU incorporation (mitogenesis) in Swiss 3T3 fibroblasts. The experiment is classed as cell-based. The note with it: Swiss 3T3, presence and absence of heparin. As for the experimental part: 6×Histidine-tagged Clone 19-jun protein (FIG. 1A) was expressed in bacteria and purified by metal affinity chromatography as described in Example 5. Assay of BrdU incorporation, a measure of entry of cells into S-phase and therefore of mitogenesis, was performed according to manufacturers instructions (Cell proliferation ELISA, BrdU, Cat. No. 1-647-229, Boehringer-Mannheim, Indianapolis, Ind.). Briefly, 1×10^4 Swiss 3T3 cells per well were plated on gelatin-coated 96-well microtiter plates in complete media (DMEM, 10% FCS, antibiotics), incubated 24 hours, and the media changed to quiescent media for an addition 24 hours (DMEM containing 0.5 mg/ml bovine serum albumin, 1 μg/ml insulin, 5 μg/ml transferrin, antibiotics). The cells were then treated with bFGF or Clone 19-jun protein at the indicated concentrations in the presence of 15 U/ml heparin. 18 hours later, BrdU was added, the cells incubated an additional 4 hours, and assayed as described. […] Heparin alone had no effect, nor did a control protein expressed and purified in the same manner in which the C19 sequence was deleted.

A further experiment addresses T1, FGFR1c ECD (Homo sapiens, UniProt P11362).
T1 construct: human FGFR Ic (residues 1-377); made in house
T1 sequence (P11362 22-377): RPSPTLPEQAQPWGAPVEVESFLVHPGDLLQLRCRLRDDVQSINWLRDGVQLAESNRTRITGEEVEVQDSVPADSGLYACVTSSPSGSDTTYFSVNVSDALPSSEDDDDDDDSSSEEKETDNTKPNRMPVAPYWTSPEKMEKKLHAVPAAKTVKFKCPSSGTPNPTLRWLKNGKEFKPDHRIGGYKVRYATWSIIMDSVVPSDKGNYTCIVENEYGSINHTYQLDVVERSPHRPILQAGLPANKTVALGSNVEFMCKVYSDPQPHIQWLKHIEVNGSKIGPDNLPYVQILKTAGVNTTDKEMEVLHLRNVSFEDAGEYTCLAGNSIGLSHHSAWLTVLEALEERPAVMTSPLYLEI
As to the kind of experiment: BIAcore real-time kinetic analysis on immobilized FGFR1c ECD. Type of experiment: binding. The note with it: in vitro, absence of heparin. As for the experimental part: Apparent affinities for immobilized FGFR1c ECD were determined using BIAcore real-time kinetic analysis in the absence of heparin.
Protein representing the linker segments and c-jun leucine zipper without the C19 sequence (FIG. 2) was expressed, purified, and characterized as for C19jun. C19 peptide with an intrapeptide disulfide bond was synthesized, purified by HPLC, and characterized by mass spectroscopy. C19junΔhep protein was prepared by changing human c-jun residues Arg276, Arg279, Lys285, and Lys288 in the leucine zipper domain to glutamines. Expression, purification, and characterization was as for C19jun. […] The extracellular ligand-binding domain of human FGFR Ic (residues 1-377) and human erythropoietin receptor (residues 1-250) were fused to the Fc region of human IgG1, expressed in baculovirus and purified by protein A affinity chromatography. […] PDGF receptor Fc fusion protein was from R&D Systems.

In the next experiment the test system is FGFR. Put plainly: FGFR autophosphorylation in Swiss 3T3 cells (anti-FGFR IP, anti-phosphotyrosine blot). Type of experiment: cell-based. The note with it: 1.0 nM bFGF or 50 nM C19jun, 15 U/ml heparin, 15 minutes. As for the experimental part: (§1) To determine whether C19jun could activate FGF receptors in vivo, Swiss 3T3 cells were treated with basic FGF (bFGF) or purified C19jun protein. Cell extracts were then immunoprecipitated with anti-FGFR antibodies, analyzed by SDS-PAGE and immunoblotted with anti-phosphotyrosine antibodies. Extracts from bFGF and C19jun-stimulated 293 cells expressing FGFR1c were also immunoblotted with phospho-MAP Kinase-specific antibodies.
(§2) Swiss 3T3 fibroblasts, or 293 cells expressing full-length FGFRIc were incubated in quiescing media (DMEM, 1 μg/ml insulin, 5 μg/ml transferrin, 0.5 mg/ml BSA) for 24-48 hrs, and then stimulated with 1.0 nM bFGF or 50 nM refolded C19jun protein in the presence of 15 U/ml heparin for 15 minutes at 37° C. The cells were lysed and aliquots of lysate containing equal amounts of total protein were either analyzed directly by immunoblotting with phospho-MAPKspecific antibodies and anti-total MAPK antisera (New England Biolabs) or immunoprecipitated with anti-FGFR antisera and immunoblotted with anti-phosphotyrosine antibodies (Upstate Biotechnology, Inc.). Both bFGF and C19jun induced FGFR autophosphorylation and MAP kinase phosphorylation.

Experiment [1] concerns 293 cells expressing full-length FGFR1c. As to the kind of experiment: MAP kinase phosphorylation in 293 cells expressing FGFR1c. Type of experiment: cell-based. The settings on record: 1.0 nM bFGF or 50 nM C19jun, 15 U/ml heparin, 15 minutes. As for the experimental part:
as §1, §2

For experiment [2], the system named is Swiss 3T3 cells. Put plainly: Swiss 3T3 proliferation, WST-1 long term assay. The experiment is classed as cell-based. The settings on record: WST-1, 4 successive days, 15 U/ml heparin, FIG. 4. On the procedure: Swiss 3T3 cells were plated on gelatin-coated 96-well microtiter plates in quiescent media containing the indicated concentrations of bFGF or C19-jun protein and 15 U/ml heparin and cell number estimated on each of 4 successive days by the WST-1 assay as per manufacturers instructions (Cell proliferation Reagent WST-1, no. 1644807, Boehringer-Mannheim).

Another experiment concerns human endothelial cells. As to the kind of experiment: Proliferation of human endothelial cells. The experiment is classed as cell-based.
The subject of a further experiment is PC12 cells. As to the kind of experiment: PC12 cell neurite outgrowth. The experiment is classed as cell-based. On the procedure: 1×10^4 PC12 cells per well were plated on mouse laminin-and-poly-L-lysine-coated 24-well plates in 1 ml of media (RPMI 1640, 10% horse serum, 5% FCS, antibiotics) and stimulated with 1 nM bFGF or 2 nM C19-jun protein in the presence of 15 U/ml heparin for 4 days.

The nature of experiment [3]: Binding to heparin agarose beads.
Experiment [4] has as its system Swiss 3T3 cells. Put plainly: Swiss 3T3 mitogenesis with soluble receptor ECD competitors. The experiment is classed as cell-based. As for the experimental part:
To further examine the specificity of C19jun for FGFR, Swiss 3T3 cells were stimulated with C19jun in the presence of protein representing the soluble extracellular binding domain (ECD) of various receptors used as binding competitors. The mitogenic activity of C19jun was abolished by pre-incubation of the fusion protein with excess FGFR1c ECD, but was unaffected by incubation with identical concentrations of the closely related PDGF receptor ECD or with erythropoietin receptor ECD. […] Similar results were observed when phosphorylation of MAPK was analyzed in these cells.
Protein representing the linker segments and c-jun leucine zipper without the C19 sequence (FIG. 2) was expressed, purified, and characterized as for C19jun. C19 peptide with an intrapeptide disulfide bond was synthesized, purified by HPLC, and characterized by mass spectroscopy. C19junΔhep protein was prepared by changing human c-jun residues Arg276, Arg279, Lys285, and Lys288 in the leucine zipper domain to glutamines. Expression, purification, and characterization was as for C19jun. […] The extracellular ligand-binding domain of human FGFR Ic (residues 1-377) and human erythropoietin receptor (residues 1-250) were fused to the Fc region of human IgG1, expressed in baculovirus and purified by protein A affinity chromatography. Activity of the fusion proteins was confirmed by binding of [^125I]-labeled ligands. PDGF receptor Fc fusion protein was from R&D Systems.

Experiment [5] relates to L6 myoblast cell lines stably expressing FGFR1c. Put plainly: c-fos mRNA expression in L6 myoblasts stably expressing FGFR1c. The experiment is classed as cell-based.
The next experiment concerns control L6 cells. Put plainly: c-fos mRNA expression in control L6 cells that do not express FGFR. Type of experiment: cell-based.
Setting [6] is: Swiss 3T3, identical concentration.

B1: C19jun: C19 sequence fused via flexible linker to human c-jun leucine zipper (residues 276-314) flanked by cysteines, polyhistidine tag; SEQ ID NO:41 (protein)
chain: MAESGDDYCVLVFTDSAWTKICDWSHFRNGPGGGSGGGSGGGSGGGSGGGSRCGGRIARLEEKVKTLKAQNSELASTANMLREQVAQLKQKVMNHGGCGGSGGHHHHHH
modifications: SyArtificial Sequence
For B1, the “heparin dependence of mitogenic activity” value in the experiment on Swiss 3T3 fibroblasts is reported as “required for optimal mitogenic activity”. Also, the “binding to immobilized FGFR ECD” value in the experiment with FGFR1c ECD is “high affinity and specificity”. For the same molecule, the FGFR autophosphorylation entry in the experiment on FGFR is “induced”. The MAP kinase phosphorylation result in experiment [1] is “induced”. Also, the “Swiss 3T3 proliferation in long term assay” value in the experiment with Swiss 3T3 cells [2] was “equal or greater extent than 1 nM bFGF”. The “Swiss 3T3 proliferation in long term assay” value with Swiss 3T3 cells [2] (listed as C19-jun) is reported as “as well or better than bFGF”. For the same molecule, the “proliferation of human endothelial cells” value in the experiment with human endothelial cells is “stimulated the proliferation”. Further, in the experiment on PC12 cells, the “heparin dependence of morphogenic activity on PC12 cells” value was “required for the morphogenic activity”. Further, in the experiment on PC12 cells (1 nM bFGF or 2 nM C19-jun, 15 U/ml heparin, 4 days), the “neurite outgrowth / PC12 cell differentiation” value was “induces PC12 cell differentiation as well or better than bFGF”. Besides, the heparin binding result in [3] was “quantitatively and specifically bound to heparin agarose beads”. The “mitogenic activity after pre-incubation with excess FGFR1c ECD” value in the experiment on Swiss 3T3 cells [4] (Swiss 3T3) is “abolished”. Also, in the experiment with Swiss 3T3 cells [4] (setting [6]), the “mitogenic activity after incubation with PDGF receptor ECD” value was “unaffected” and the “mitogenic activity after incubation with erythropoietin receptor ECD” value was “unaffected”. For the same molecule, the “c-fos mRNA expression in FGFR-expressing L6 cells” value in experiment [5] is “stimulated c-fos mRNA expression”. Also, the “c-fos mRNA expression in control L6 cells” value in the experiment on control L6 cells is “neither was active”.
